Reference: patent publication US11957762B2, “Immune tolerant and non-immune tolerant elastin-like recombinant peptides and methods of use” (University of Utah Research Foundation, priority 2015, dated 2024)

Tests used:
[1] = Quantification of free sulfhydryl groups (Ellman's method); type: physicochemical
Experimental: Quantification of free sulfhydryl groups of RED-NP after reducing treatments. Twenty mg of RED-NP were dissolved in 2 mL of H2O and treated with 1 mM of GSH for 16 h. The solution was then dialyzed (membrane cutoff MW: 3,500 Dalton) in deionized water at 4° C. for 24 h. Then the sample was concentrated to 0.5 mL using Amicon centrifugal filter devices (Millipore, USA). Numbers of free sulfhydryl groups of RED-NP were determined by Ellman's method. Briefly, 250 μL of sample and 50 μL of Ellman's reagent (Thermo Scientific, USA) were added to 2.5 mL of reaction buffer (0.1 M sodium phosphate, pH 8.0, 1 mM EDTA). After 15 min of incubation at room temperature, the OD412 was measured. To generate a standard curve of free sulfhydryl groups, OD412 of serial dilutions of cysteine hydrochloride monohydrate was measured. The serial OD412 values were plotted against concentrations of cysteine hydrochloride monohydrate to generate a standard curve. Concentrations of free sulfhydryl groups in the RED-NP samples were determined from the standard curve and used to calculate numbers of free sulfhydryl groups per iTEP-vaccine fusion molecules.

[2] = tested on: endothelial cells (EA.hy926 and bEnd.3) and fibroblasts (3T3); assay: Cellular uptake of iTEP-vaccine fusions by control cells; type: cell-based; settings: 5 μM coumarin-labeled fusions, 4 h
Experimental: Cellular uptake of iTEP-vaccine fusions. DC2.4, EA.hy926, bEnd.3, 3T3 cells were plated at 1.5×10^5/500 μL/well in 24-well plates. When the cells attached to the bottom of the plate (4 h or overnight), the media was replaced with 500 μL of fresh media with or without 5 μM of coumarine labeled iTEP-vaccine fusions. After being cultured for 4 h at 37° C. in 5% CO2, the cells were collected and washed twice with PBS. The fluorescence of the cells was measured by flow cytometry (collecting 5×10^4 events per sample).

[3] = Thermally-induced reversible phase transition (turbidity OD350 vs temperature); type: physicochemical
From the text: Characterization of thermally-induced, reversible, inverse phase transition of iTEPs and the iTEPB-iTEPA-pOVA fusion. The phase transitions of iTEP or iTEP fusions were characterized by turbidity changes of sample solutions as a function of temperature. Specifically, the optical density at 350 nm (OD350) of a sample solution was monitored using an UV-visible spectrophotometer equipped with a multi-cell thermoelectric temperature controller (Cary 300, Varian Instruments, Walnut Creek, CA) while the solution was heated from 20° C. to 80° C. and then cooled to 20° C. at a rate of 1° C./min. The maximum first derivative of the turbidity curve of a sample was identified. The transition temperature (Tt) of the sample is the temperature that corresponds to the maximum derivative.

B1: RED-NP: reductive-environment dependable NP, disulfide stabilized fusion iTEPB70-iTEPA28-(G8C)4-pOVA (SEQ ID NO: 61) (protein)
chain: GGAGVPGGAGVPGGAGVPGGAGVPGGAGVPGGAGVPGGAGVPGGAGVPGGAGVPGGAGVPGGAGVPGGAGVPGGAGVPGGAGVPGGAGVPGGAGVPGGAGVPGGAGVPGGAGVPGGAGVPGGAGVPGGAGVPGGAGVPGGAGVPGGAGVPGGAGVPGGAGVPGGAGVPGGAGVPGGAGVPGGAGVPGGAGVPGGAGVPGGAGVPGGAGVPGGAGVPGGAGVPGGAGVPGGAGVPGGAGVPGGAGVPGGAGVPGGAGVPGGAGVPGGAGVPGGAGVPGGAGVPGGAGVPGGAGVPGGAGVPGGAGVPGGAGVPGGAGVPGGAGVPGGAGVPGGAGVPGGAGVPGGAGVPGGAGVPGGAGVPGGAGVPGGAGVPGGAGVPGGAGVPGGAGVPGGAGVPGGAGVPGGAGVPGGAGVPGGAGVPGGGVLPGVGGVLPGVGGVLPGVGGVLPGVGGVLPGVGGVLPGVGGVLPGVGGVLPGVGGVLPGVGGVLPGVGGVLPGVGGVLPGVGGVLPGVGGVLPGVGGVLPGVGGVLPGVGGVLPGVGGVLPGVGGVLPGVGGVLPGVGGVLPGVGGVLPGVGGVLPGVGGVLPGVGGVLPGVGGVLPGVGGVLPGVGGVLPGVGGCGCGCGCGESIINFEKLTESIINFEKLTGG
In the case of B1, the “free sulfhydryl groups, on average” value ([1]; after the treatment of 1 mM of GSH) is reported as “two” and the “free sulfhydryl groups, on average” value ([1]; before GSH treatment) is reported as “zero”.

B2: ST-NP: stable NP of the fusion iTEPB70-iTEPA56-pOVA (SEQ ID NO: 60) (protein)
chain: GGAGVPGGAGVPGGAGVPGGAGVPGGAGVPGGAGVPGGAGVPGGAGVPGGAGVPGGAGVPGGAGVPGGAGVPGGAGVPGGAGVPGGAGVPGGAGVPGGAGVPGGAGVPGGAGVPGGAGVPGGAGVPGGAGVPGGAGVPGGAGVPGGAGVPGGAGVPGGAGVPGGAGVPGGAGVPGGAGVPGGAGVPGGAGVPGGAGVPGGAGVPGGAGVPGGAGVPGGAGVPGGAGVPGGAGVPGGAGVPGGAGVPGGAGVPGGAGVPGGAGVPGGAGVPGGAGVPGGAGVPGGAGVPGGAGVPGGAGVPGGAGVPGGAGVPGGAGVPGGAGVPGGAGVPGGAGVPGGAGVPGGAGVPGGAGVPGGAGVPGGAGVPGGAGVPGGAGVPGGAGVPGGAGVPGGAGVPGGAGVPGGAGVPGGAGVPGGAGVPGGGVLPGVGGVLPGVGGVLPGVGGVLPGVGGVLPGVGGVLPGVGGVLPGVGGVLPGVGGVLPGVGGVLPGVGGVLPGVGGVLPGVGGVLPGVGGVLPGVGGVLPGVGGVLPGVGGVLPGVGGVLPGVGGVLPGVGGVLPGVGGVLPGVGGVLPGVGGVLPGVGGVLPGVGGVLPGVGGVLPGVGGVLPGVGGVLPGVGGGGGGGGGCGGGGGGGGCGGGGGGGGCGGGGGGGGCGESIINFEKLTESIINFEKLTGG
In the case of B2, the “uptake by endothelial cells and fibroblasts relative to the MS-NP” value [2] is reported as “either the same amount or less”.

B3: G(GAGVPG)70G(GVLPGVG)28G(ESIINFEKLT)2GG (protein)
chain: GGAGVPGGAGVPGGAGVPGGAGVPGGAGVPGGAGVPGGAGVPGGAGVPGGAGVPGGAGVPGGAGVPGGAGVPGGAGVPGGAGVPGGAGVPGGAGVPGGAGVPGGAGVPGGAGVPGGAGVPGGAGVPGGAGVPGGAGVPGGAGVPGGAGVPGGAGVPGGAGVPGGAGVPGGAGVPGGAGVPGGAGVPGGAGVPGGAGVPGGAGVPGGAGVPGGAGVPGGAGVPGGAGVPGGAGVPGGAGVPGGAGVPGGAGVPGGAGVPGGAGVPGGAGVPGGAGVPGGAGVPGGAGVPGGAGVPGGAGVPGGAGVPGGAGVPGGAGVPGGAGVPGGAGVPGGAGVPGGAGVPGGAGVPGGAGVPGGAGVPGGAGVPGGAGVPGGAGVPGGAGVPGGAGVPGGAGVPGGAGVPGGAGVPGGAGVPGGAGVPGGESIINFEKLTESIINFEKLTGG
With B3 the “temperature of sharp increase of turbidity (formation of aggregates)” value [3] was 70 °C, the “Tt (cooling)” value ([3]; 25 μM in H2O) was 73.70 ± 0.23 °C and the “Tt (heating)” value ([3]; 25 μM in H2O) was 75.40 ± 0.14 °C.
